The nature of this data set: label from the status in PepcDB records.
For the sequence “MYLTVTPLSIVALTTAPPYFDTNGSISVPPPPNVIRSGLYESITLEYHKYTIKYCLTLITQTILFFLIVVCSMKVVIFGGTGLIGRAIYSSLPHDFYIVSRSAKGQEGQAHIIGLDEIDKIKECDVVINLSGYSIASKRWNRKVKEEIVRSRIDTTRLVVNFIRNLEKKPSAFLSGSAIGFYGHNTNKELTEEDPFGSGFLADLARSWEEEAMQADGICRTVLLRTANFLSPKGGFLSALINPKSKNVMYFGDGRQPVSWMHYADYVKAVEFVIENASIAGPVNMSSPQPVTFKEFAEAFSKSLGSHIRSIPEFLGKIALGSEMYRELMSGQKVIPKKLIQAGFKFDFPDINTAASSIASLMK”, the protein production result is “failed”.
In the case of “MGSSHHHHHHSSGLVPRGSHRSEFSSRSGYGEYVQQTLQPGMRVRMLDDYEEISAGDEGEFRQSNNGIPPVQVFWQSTGRTYWVHWHMLEILGPEEATEDKASAAVEKGAGATVLGTAFPS”, the protein production entry is on record as “not failed”.
Turning to “MPDADVNDFELVDVDQKAADKAIKDLGVKATIDEVCTVGEEGYVVTATDKEGYGGDIKITVGITADGTINGISILSISETAGLGMRATEPAFYEQYQGKQAEKFVVSKDGGDGEPIDALSGATITSRAVTGAVNAALGYYQNAFLEHHHHHH”, the protein production result is “not failed”.
Next, “MQAGNPMSLQSMLPYVTPPVVGAVIGYVTNDIAIRMLFRPLKPWRVFGIRVPLTPGVIPAGRHEFAATIGRMVGTHLVTGTDVARALGKDSFRRELQEAVSGKLDTLLDRDLGTVGSLLPEGFESWLRDGVDLAARRAGETVAGYLQGEDFRRELSLFLRDLEERVLPRELERILAGETGDAVRAGAGRALAALLQSRGVSRAVAGLVDDKLDELLASERPLRELLPPELVELATAQAREAMPVILGRVAEFVRSPEIRDTFEAKLREGVQQYLANLKGTLGFMAGFISVEKLNSYFPGLVGSVTDEVVRWLGEETTHRRVAAMVDQGLGRILDRPLAATVEQLPYRRVALLRRSIRRGALGVVRRPETAGFLLALAERELVRLAADPSRPILERLAPEDDPSRLREGLVGWLTDRLRDPGIRATLERIVAGRVEEWLFNRPLGRLSARISAEVRRDLDQLIYRQVADLLEREAPPLIDALDVARMVEEKINTLDILAVEGLLLSIMQKHFLYINLFGALLGFVMGSFNVLLMGLGR”: “failed”; “MEVARGLEGVLFTESRMCYIDGQQGKLYYYGIPIQELAEKSSFEETTFLLLHGRLPRRQELEEFSAALARRRALPAHLLESFKRYPVSAHPMSFLRTAVSEFGMLDPTEGDISREALYEKGLDLIAKFATIVAANKRLKEGKEPIPPREDLSHAANFLYMANGVEPSPEQARLMDAALILHAEHGFNASTFTAIAAFSTETDLYSAITAAVASLKGPRHGGANEAVMRMIQEIGTPERAREWVREKLAKKERIMGMGHRVYKAFDPRAGVLEKLARLVAEKHGHSKEYQILKIVEEEAGKVLNPRGIYPNVDFYSGVVYSDLGFSLEFFTPIFAVARISGWVGHILEYQELDNRLLRPGAKYVGELDVPYVPLEARE”: “not failed”.
As for “MKLKKEKKMAEFTFEIEEHLLTLSENEKGWTKEINRVSFNGAPAKFDIRAWSPDHTKMGKGITLSNEEFQTMVDAFKGNLEHHHHHH”, the protein production result was “not failed”.
Consider “AVSFTGVSGVKNIVAVTACPTGVAHTFMSAEAIEAYAKKQGWNVKVETRGQVGAGNEITVEEVAAADLVFVAADIDVPLDKFKGKPMYRTSTGLALKKTEQEFDKAFKEAKIF”, for which the protein production entry is recorded as “failed”.
As to “MNIPNLLTLFRFFLIPCFIFAFFSRSNDSLINSAIIFFIAGFTDILDGYIARKFNEITKYGTVMDPLADKLMLLTVLCCLTIKGYIPLLILLIMLAKEFSMIIIGVFLYGKNIIIPANIWGKLSTLIFYVAILFFTFSKFLGTYLLYIAILGAVVAYINYFLIFLSKYRQNATK”, the protein production result is recorded as “failed”.
Regarding “MANSLRTLFSVSTHGVFLNKRSSYRVRKVFVGMPLRICSEIPRFVSVSCIRSDMCGIMMLGKDVHDLLETSSGGNVEKGFLRWRNGGGMYHRSALIDSSALVEFGAVVHQEAILGAEVHIGSNTVIGSSVKIGPSTKIGNCSIGDLCVIHNGVCIGQDGFGFYVDDNGNMVKKPQTLNVKIGNRVEIGANTCIDRGSWRDTVIGDDTKIDNLVQIGHNVIIGKCCLFCGQVGIAGSAEIGDFVALGGRVAVRDHVSIVSKVRLAANSCVTKNITEPGDYGGFPAQEETITYSVCQTQED”, the protein production result is reported as “failed”.
For the sequence “MKRRAGLGGSMRSVVGFLSQRGLHGDPLLTQDFQRRRLRGCRNLYKKDLLGHFGCVNAIEFSNNGGQWLVSGGDDRRVLLWHMEQAIHSRVKPIQLKGEHHSNIFCLAFNSGNTKVFSGGNDEQVILHDVESSETLDVFAHEDAVYGLSVSPVNDNIFASSSDDGRVLIWDIRESPHGEPFCLANYPSAFHSVMFNPVEPRLLATANSKEGVGLWDIRKPQSSLLRYGGNLSLQSAMSVRFNSNGTQLLALRRRLPPVLYDIHSRLPVFQFDNQGYFNSCTMKSCCFAGDRDQHHNWKWRAQAVSFQPFLSLTRNGDADVDLKLAV”, the protein production result is “failed”.
As for “MKFLVGYSNDSSGKDALKLGVALAEMTQGKLIVCHIVAKTWHNIALAKFDEDYDQFLCDEAQKALDDAKLAVPSHIEARYIARTALSISEGLKQTAKELSVDCMVISGARIAIKGQFFSGTVADELLNQLSLPVALAPKGFAKNQGFTSPLTRLSCAVSGSDQSCNLAISAGEWAEIFNVPLRFVTFAVRDRDITPTAAGFDAENMVINEWREQIEAEYAQATQHWESDVPISLEIGDGPTWKESIQSIDWQASELLIVGTTTSGIFKQVLVGKNAEKIIRYASVPRLVLPRSTD”, the entry is “failed”; as for “MPLNRNHSELRSGKVNLKNGDPFTIALFGVDSDEKRKQQGGGERSDTIMVLSINPKEKKTELVSIPRDTKAEIAGRGTEEKINHAYAYGGPNMAVKTIEKLMNVPIDHYATIDMDGLHDMIDTLGGVDVVSNSTFTMGANHFVKGEKTHVDGDAAMDFIRSRKEDGAGGDFGRQERQQLILEAMADKMTSASSITHFNTLMNQIQKNVKTDLKLGDLNTIRTKYKDANDQVNRHQLEGEGGIQNDGLYYFIPSDASKNENTQLLRDNLNLLEHHHHHH”, “not failed”; as for “MAIRRCYIAQNPKSSCRFNCVRERFEDLRGVPCLVYEGETRDWINAALFLEDENESEDRKRFVLHTSHSALLYMEYDLTSNADCTVLELARCTDSSILYYTKLHGSSFNKLAIISGNAFGELLVWQTQFPTESDPKSVMKTYPLLLRIEAHNGVIHSIEFDLQSQLLVTTSDDRSVKFWNIQKSGDWTTAEIKPMFSCYGHSSRVMCVVILKIDDRTFVASGGEDSYVCIWSSSGELILKRRQQFGAPIWRLGFSQDAEILYSTSSTGNLVGQNLKEVLNRPKIESTILSSLGDANEFVRNLKFVNNEIIVGLSSLNRLYYTRISPDSSHENKWLMVNDFPSYKRTVLEVFDDIIATCGHRRITLHRDRYLVSDNLGYCLLLQTHQLHIESHIALFNNREPWITAALLISEQYLLLGNREGHVMLYCRSSASDDFQLKDSIRYLHGKMGSNFFKLLSLNADNAHVMSGGHEAFLKYLSVRFSDSTLRVSQREGIPLAWVEASPSDDLILGFNDNHIVAWSRRNDILLQLACGGGHRCWDFRLSDGDSQLSIAYVKQKRVYFYRNSLYNAVDNRLKDIEPNNWHVRNCNTLRLITPRNQSDPFILSAGDDNIIKVTQVTNDSLSQRAEMHSHISTVRSLQAIPYKSNGGDSSTWLVFSVGGRSQLCISQLSIDASNKCWISEISSHTLHNVAASKTSTIEARLMAIDVVQHSDGDLFSIYVAGGDGNISHYIWELETPNQLDLKHFVDIQRCPLGIQWIASKGMLLVSTTNGEVYGFDRTLETTYFQLQLHVTGINTIDIYVDRHLLHILSGGDDESIKYTVLNLNNNNVEQKIEYLGLHNAQVNALAIHCPTKSVAASELFAYTCSIDRQIYRIDLSTHKYKRVGYTCIADVKGMLLDEHQRMYFYGCGLQTMSISNIL”, “failed”.
With “MASILRWFVRAFALALAAQSVCANPRPEVIDTIAATPAGLVAVTEDGTGLWSLVDGSRPAWQARPRAPNARGDMQLEPVAVSPDGRWLAATRGYKDPVIVVRDAATGRAVREIKAPRSGVDGLRFAGDDVLVALYAGRLAAVWEASSGKARGVFELPAAPRQVAASADGRYLAVGQDKQRVTVYDLEGGKSLGNFELGSIASKSHAVPTHDILFMAFAYDGTVVVHHATGYIQRFDPRRAAPAALLGSQDIPLRGVATSLSPDRRVLLTADRPGALTLYRLDQPAPARSALRSALGEVTASAWEAGSRRFAVADNQGRVELWDARKPAGAALEGKHAGAIEQLAFASAGRFLVSSGRDGSIRVRETATGQEAVRLVGLGETGWVSMMPAGYFHSSGLPAEAAINVRIGSDVYGIDNFRERYYRPDILSAALQGRSVRPQRTLADTRPPPQVRADPVPASLAADTYTLVLQLTDQGGGIGDVRVLRNDVAVANHAADAQAAAGSQRRSIPVKLAAGRNEIKVIAFNAENSLSSKPLRLTLDVRATQPEKPVLHAMIVGINEFGEASLNLQYAVNDANAIARELRERTRGLYRDVRIELLTTPQQTSRASLIESLRRYQQLDAGDVFMFYVSTHGAVMGDKPVDQEYFLIPSNAKSPVFAHDAISQHELKRLFSSIPAGKKLLLFDTCFAGALGEALYQPAVERGVAENGAVNVLATAIGSTTLAASAPLEMSYEGYQEHGTFTWVVLQAFRGKAGGGKGNVVLTADLARYVAREVPALARRLQREQNPAVYATGQPFPVVAGR”, the protein production entry was “failed”.
Take “MLRLVKKSVIGLVDWFLYKALKTSQKQFLSSLLTEKQKQAIKRVIKPGKKQTQLRKIERLKYRLYNLGFTNRALEDLQLICRESGEPYLKRLAAWELALWHANQYTTEDAKACLRYLDIATTGVKDRDDLRAVAIVKAECYDLLGEREQGKELVQQMIETQPHPDLYLAAANLETTVAQRMKWINKVFAHYGTEPLELTEQADEKSPYDALGVNGIDESSENDEQPKVTVIIPAFNAESVIQTSIESMQKQTWTNLEIFVVDDCSTDETASIVHQYAEQDHRVHYLKTETNSGAYVARNIALQHATGDFVTINDADDWSHSRKIEIQVRHLLKHPNIIGNFSQQVRATNDLKFYRRGKPGLYIFANMSSFMFRRKPAMDKLGYWDCVRFAGDSEFVKRIKLAFGEKAVVELPTAPLSFQRQSGESLTSHSAFGFPGYFMGARREYAEAHDHFHRTSQEGLRYSFPQKERPFPVPEPMLPNRQPKSAGRRHFDVILASEFRLLGGTNMSNVEEIKAQREMGLRTGLIQLSRYDLNSVEAINPNVRELIDGDQVQMIVYGEQVSCDVLIVRHPPILQEWQRYVPNVEAKSVHVIVNQPPQRDYGDNGSVLYELPRCIDHLQAYFGKKGIWYPIGPNVREALYEHHHKDLQAIPFSDQDWVNIINVKEWKRVTRREKDGKIKIGRHSRDQYVKWPKDRATMLQIYPDKEPFEVHILGGAKSPTKVLGSLPANWHVREFGEVHPREFLAELDVFVYFTHPDWVEAFGRVVFEAMAAGVPVIVPHEYEKLFGEAAIYAEITEVQEKVMKLMADDKYYQSQVEKALIYVENQFGYSQHAARLETFLHEDERAEV”: the protein production result is listed as “failed”.
As to “MWKRMTAKAEGLYIADTKSFVTKQMDKLDFDYGGIPGDLHFGLTKKAGAREPMFSRGTEIFNRRQISIVSIEECNEIALKMGVPRILPEWLGANVAVSGMPDLTSLKEGSRIIFPSGAALLCEGENDPCIQPGEVIQSYYPDQPKLASAFVRHALGIRGIVCIVERPGAVYTGDEIEVHSYQRKVKRKAERV”, the protein production result was “not failed”.
In the case of “YDASPAYYLYTSGSTGTPKCVVLNNRATAHVLQETIDFWGINDKDIHLAATPFHHDMSIFDLMAPLSVGGTLVVPTLEEAKSAVAWAELIERYQVSIWCTVPAMVDMLLTSAEPSQLQSIRLINQGGDYVKPSVVQKLREILPNTRLISIGGPTETTIWSIWHEITSEDI”, the protein production result was “failed”.
As for “MALPESESARTEQALGRLVGSLCVVTAQQGELSSAMLASWVSQATFSPPGLTVAVAKERAIESLLHKNSCFVLNILQEGNHLGLMKHFLKPFAPGGDRFADVATETAENGAPILTESLAYLECRVQQRLECGDHWVLYAVTDRGALLKDGVTAVHHRKSGDHYLEHHHHHH”, the protein production entry is given as “failed”.

For the origin of these results see a protein production outcome set (Wang et al. 2014).
